B1: AcP-TRap1 (structured_RNA)
RNA: GGAUCCAAGCUUGUUUGGCUCCAACCGUCCCCGCGUAUAUGGCCUAGAUAAAUUCGGAGCUUUUUGCCCAUCCUCAUAUAUUGCUUUCGACGGAGAAUUC
B2: AcP-TRap2 (structured_RNA)
RNA: GGAUCCAAGCUUGUUUGGCAUUCCACGUCGAUAAAAGAUUGGCCUAGAUAAAUUCGGAGCUUAAAAUUCCCUCCUAUCUUUUGCUUUCGACGGAGAAUUC
B3: AcP-TRap3 (structured_RNA)
RNA: GGAUCCAAGCUUGUUUGGCCCAAUAACGUCGAUUGAUUGUGGCCUAGAUAAAUUCGGAGCUUUCAAUGAAUUACACAACAAUGCUUUCGACGGAGAAUUC
B4: AcP-TRap4 (structured_RNA)
RNA: GGAUCCAAGCUUGUUUGGCCCAAUUCCUCGUCUUCAGACUGGCCUAGAUAAAUUCGGAGCUUGUUCACAACCUCUACUUCCUGCUUUCGACGGAGAAUUC

Target: beta-actin (monomeric, G-actin) (human, UniProt P60709 2-375)
Experiment: fluorescence turn-on of BHQ1 probe; apparent; 10 mM Mg2+, BHQ1 probe; 10 mM Tris-HCl pH 7.6, 100 mM KCl, 10 mM MgCl2 (Kd assays), room temperature; RNA 3 uM with actin 3 uM preincubated 30 min at 25 C, then probe 1 uM (final) in 2

For B1, which Kd is on record?
Its Kd is 1500 nM.

For B2, which Kd is on record?
The Kd was 600 nM.

B3 was tested. Which Kd did it give?
Its Kd is 1000 nM.

How did the Kd turn out when B4 was run?
The Kd was 200 nM.

Reference: article PMC8682759
